Test results taken from patent publication US20080096219A1.

Target: horseradish peroxidase-conjugated IgG (Wako Pure Chemical Industries, Ltd.)
Assay: protein A immobilized on a platinum microelectrode (-100 mV), incubated with 0.5 mg/ml HRP-conjugated IgG, peroxidase luminescence read by luminometer

amount of luminescence: 1.4e+10 cps
Substance: polyhistidine-fused protein A
